Experiments:
[1] = molecular target: T1, Fusion protein of extracellular domain of human TIGIT and His-tag (human TIGIT ECD-his) (human); experiment: BIAcore
T1 chain: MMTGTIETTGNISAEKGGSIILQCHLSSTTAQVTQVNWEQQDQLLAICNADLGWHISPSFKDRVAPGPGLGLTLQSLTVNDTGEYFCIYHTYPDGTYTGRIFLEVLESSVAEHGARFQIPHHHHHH

[2] = molecular target: T2, Fusion protein of extracellular domain of human TIGIT and mouse IgG2a Fc fragment (human TIGIT ECD-mFc) (human); experiment: ELISA, human TIGIT ECD-mFc
T2 construct: The entry includes the signal peptide (limits not recoverable) and the mouse IgG2a Fc
T2 chain: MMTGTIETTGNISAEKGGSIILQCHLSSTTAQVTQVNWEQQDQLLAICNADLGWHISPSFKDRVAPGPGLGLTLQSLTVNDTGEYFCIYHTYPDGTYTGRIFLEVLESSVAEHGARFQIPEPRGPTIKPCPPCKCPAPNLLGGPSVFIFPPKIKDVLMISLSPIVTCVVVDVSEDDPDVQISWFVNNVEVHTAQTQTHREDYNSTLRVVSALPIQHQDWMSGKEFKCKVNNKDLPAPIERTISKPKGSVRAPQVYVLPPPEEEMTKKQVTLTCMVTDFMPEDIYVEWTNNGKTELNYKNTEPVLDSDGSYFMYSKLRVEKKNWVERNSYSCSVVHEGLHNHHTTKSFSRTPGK
Procedure: (§1) After discarding the coating solution, the plate was added with 5% skim milk powder (Sangon Biotech, CAT #A600669-0250)-PBS, 250 μL/well, and incubated at 37° C. for 2-4 hours. […] The enzyme-labeled plate was then washed with 0.05% Tween 20-PBS for 3 times on the Microplate Washer, added with tested antibodies diluted to 13 nM with 1% BSA (diluted by 3-fold serial dilution for 12 concentration points), 50 μL/well, and incubated at 37° C. for 1.5-2 hours. The plate was washed with 0.05% Tween 20-PBS for 3 times on the Microplate Washer, then added with HRP enzyme-labeled antibodies (Merck, CAT #AP113P) diluted with 1% BSA (Sangon Biotech, CAT #A500023-0100)-PBS at a dilution ratio of 1:5000, 50 μL/well, and incubated at 37° C. for 1 hour. After washing 3 times with 0.05% Tween 20-PBS on the Microplate Washer, the plate was added with TMB chromogenic solution (KPL, CAT #52-00-03), 50 μL/well, and incubated at room temperature for 7-10 minutes. 1M HCL, 50 μL/well, was then added into the plate to terminate the reaction, and the OD450 nm was read by a microplate reader (Biotek, Powerwave HT). […] (b) The binding activity of anti-TIGIT chimeric antibodies to CHO-K1 human TIGIT (cells with high, medium and low expression levels) and CHO-KI cynomolgus monkey TIGIT detected by FACS.
(§2) The affinity of the above humanized antibodies with human TIGIT ECD-His is detected by BIAcore, and with reference to the methods of Example 4 (a), (b), and (d), the binding activity of the above humanized antibodies to human TIGIT ECD-mFc, CHO-K1 human TIGIT, CHO-K1 cynomolgus monkey TIGIT and cynomolgus monkey TIGIT ECD-mFc, and the effect of the humanized antibodies blocking the binding between human TIGIT ECD-mFc and CHO-K1 CD155 are detected, the results are shown in Table 18.

[3] = molecular target: T1, Fusion protein of extracellular domain …; experiment: BIAcore; KD ratio to TIGIT-CHI-006
[4] = molecular target: T3, Fusion protein of extracellular domain of cynomolgus monkey TIGIT and mouse IgG2a Fc fragment (cynomolgus … (cynomolgus monkey)); experiment: ELISA, cynomolgus monkey TIGIT ECD-mFc
T3 construct: The entry includes the signal peptide (limits not recoverable) and the mouse IgG2a Fc
Procedure: as §1, §2

[5] = molecular target: T4, Full-length cynomolgus monkey TIGIT on CHO-K1 cells (CHO-K1 cynomolgus monkey TIGIT) (cynomolgus monkey); experiment: cell binding, CHO-K1 cynomolgus monkey TIGIT
T4 construct: NCBI XP_015300911.1
T4 sequence (chain, as listed by the source limits assumed): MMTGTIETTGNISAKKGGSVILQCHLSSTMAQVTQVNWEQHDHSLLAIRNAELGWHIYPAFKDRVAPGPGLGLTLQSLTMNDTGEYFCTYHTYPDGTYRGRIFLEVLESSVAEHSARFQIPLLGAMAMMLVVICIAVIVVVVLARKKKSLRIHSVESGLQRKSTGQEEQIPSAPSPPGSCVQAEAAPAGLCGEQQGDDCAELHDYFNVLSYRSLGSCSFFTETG
Procedure: (§3) The collected cells were washed once with PBS (Hyclone, CAT #SH30256), resuspended to 2×10⁵/50 μL with 1% BSA-PBS. The antibodies were diluted to 80 nM with 1% BSA-PBS (diluted by 3-fold serial dilution for 12 concentration points). The 50 μL cells were then mixed with 50 μL diluted antibodies, and then incubated at 4° C. for 60 minutes. […] After washing twice with PBS, the cell samples were resuspended with 1% BSA-PBS, 100 μL/well and then analyzed by flow cytometry (BD, Canto II). […] [0298] (c) The effect of anti-TIGIT chimeric antibodies blocking the interaction between Bio-CD155-His and CHO-K1 human TIGIT high expression cell strains detected by FACS
as §2

[6] = molecular target: T5, Fusion protein of extracellular domain of human TIGIT and human IgG1 Fc fragment (human TIGIT ECD-hFc) (human); experiment: blocking of TIGIT ECD-hFc binding to CHO-K1 CD155 cells
T5 construct: The entry includes the signal peptide (limits not recoverable) and the human IgG1 Fc
T5 sequence (chain, as listed by the source limits assumed): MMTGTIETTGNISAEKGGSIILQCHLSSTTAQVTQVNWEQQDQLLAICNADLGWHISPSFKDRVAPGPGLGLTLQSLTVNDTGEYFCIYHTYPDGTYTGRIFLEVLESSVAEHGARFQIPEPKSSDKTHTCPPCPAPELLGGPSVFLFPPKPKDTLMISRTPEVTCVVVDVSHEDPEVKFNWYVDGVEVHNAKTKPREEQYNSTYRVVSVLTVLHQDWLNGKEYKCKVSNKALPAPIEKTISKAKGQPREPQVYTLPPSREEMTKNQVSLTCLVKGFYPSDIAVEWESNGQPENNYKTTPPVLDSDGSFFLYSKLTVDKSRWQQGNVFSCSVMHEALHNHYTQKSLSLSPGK
Procedure, shortened: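 Inhibition was expressed as IC50 values derived from the inhibition curves of a cell-based ELISA. CHO-K1 CD155 cells were cultured overnight, fixed, and blocked with 5% skim milk-PBS. Antibodies were first premixed for 0.5 h with human TIGIT ECD-hFc at a working concentration of 30 ng/mL, and the mixture was then added to the cells for 1.5-2 h at 37° C. Bound TIGIT was detected with HRP secondary antibody (1:5000, 37° C, 1 h) and TMB, and read as OD450 nm.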

[7] = molecular target: T6, Full-length human TIGIT on CHO-K1 cells (CHO-K1 human TIGIT) (human, UniProt Q495A1 22-244); experiment: cell binding, CHO-K1 human TIGIT high expression strain
T6 construct: NCBI XP_024309156.1; the entry includes the signal peptide (limits not recoverable); The strain (high, medium, low) is named under assay; also called high expression strain 1D2; medium expression strain 2D10
T6 sequence: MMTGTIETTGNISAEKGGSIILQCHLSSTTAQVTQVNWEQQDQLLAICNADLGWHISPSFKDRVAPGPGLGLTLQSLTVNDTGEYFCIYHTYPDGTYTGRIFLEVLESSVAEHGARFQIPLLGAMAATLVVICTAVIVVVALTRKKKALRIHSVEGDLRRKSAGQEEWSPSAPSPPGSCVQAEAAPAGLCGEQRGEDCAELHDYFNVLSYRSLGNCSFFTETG
Procedure: as §3, §2

Binder	Kd [1] [pM]	koff [1] [s⁻¹]	kon [1] [M⁻¹ s⁻¹]	EC50 [2] [pM]	Fold change vs chimeric antibodies (KD) [3] [fold]	binding result [4]	binding result [5]	IC50 [6] [pM]	EC50 [7] [pM]	EC50 [4] [pM]	EC50 [5] [pM]
TIGIT-006-H1L1 (antibody, V domains shown, Humanized anti-TIGIT antibody) VH: EVQLQESGPGLVKPSETLSLTCAVSGYSITSDYWNWIRQPPGKGLEWIGYISYSGRTYYNPSLKSRVTISRDTSKNQFSLKLSSVTAADTAVYYCARGDYSNYGGAMYDWGQGTTVTVSS VL: DIVMTQTPLSLSVTPGQPASISCRASQGVSTTIAWYLQKPGQSPQLLIYSASYRYTGVPDRFSGSGSGTDFTLKISRVEAEDVGVYYCQQYYSSPFTFGGGTKVEIK	6210	0.000757	122000	18.6	80.3	no binding	no binding	1530	70.2	–	–
TIGIT-006-H4L2 (antibody, V domains shown, Humanized anti-TIGIT antibody) VH: EVQLQESGPGLVKPSETLSLTCAVSGYSMTSDYWNWIRQPPGKKLEWMGYISYSGRTYYNPSLKSRITISRDTSKNQFSLKLSSVTAADTAVYYCARGDYSNYGGAMYDWGQGTTVTVSS VL: DIVMTQTPLSLSVTPGQPASISCRASQGVSTTIAWYQQKPGQSPKLLIYSASYRYTGVPDRFSGSGSGTDFTLKISRVEAEDVGVYYCQQYYSSPFTFGGGTKVEIK	658	0.000221	337000	11.3	8.5	–	–	671	25.1	997	–
TIGIT-006-H2L1 (antibody, V domains shown, Humanized anti-TIGIT antibody) VH: EVQLQESGPGLVKPSETLSLTCAVSGYSMTSDYWNWIRQPPGKGLEWIGYISYSGRTYYNPSLKSRVTISRDTSKNQFSLKLSSVTAADTAVYYCARGDYSNYGGAMYDWGQGTTVTVSS VL: DIVMTQTPLSLSVTPGQPASISCRASQGVSTTIAWYLQKPGQSPQLLIYSASYRYTGVPDRFSGSGSGTDFTLKISRVEAEDVGVYYCQQYYSSPFTFGGGTKVEIK	950	0.000382	403000	10.6	12.3	–	–	528	38.3	2880	342
TIGIT-006-H1L2 (antibody, V domains shown, Humanized anti-TIGIT antibody) VH: EVQLQESGPGLVKPSETLSLTCAVSGYSITSDYWNWIRQPPGKGLEWIGYISYSGRTYYNPSLKSRVTISRDTSKNQFSLKLSSVTAADTAVYYCARGDYSNYGGAMYDWGQGTTVTVSS VL: DIVMTQTPLSLSVTPGQPASISCRASQGVSTTIAWYQQKPGQSPKLLIYSASYRYTGVPDRFSGSGSGTDFTLKISRVEAEDVGVYYCQQYYSSPFTFGGGTKVEIK	5710	0.000666	117000	18.3	73.8	no binding	no binding	1580	105	–	–
TIGIT-006-H4L1 (antibody, V domains shown, Humanized anti-TIGIT antibody) VH: EVQLQESGPGLVKPSETLSLTCAVSGYSMTSDYWNWIRQPPGKKLEWMGYISYSGRTYYNPSLKSRITISRDTSKNQFSLKLSSVTAADTAVYYCARGDYSNYGGAMYDWGQGTTVTVSS VL: DIVMTQTPLSLSVTPGQPASISCRASQGVSTTIAWYLQKPGQSPQLLIYSASYRYTGVPDRFSGSGSGTDFTLKISRVEAEDVGVYYCQQYYSSPFTFGGGTKVEIK	657	0.000258	393000	8.6	8.49	–	–	704	34.9	1530	–
TIGIT-006-H5L1 (antibody, V domains shown, Humanized anti-TIGIT antibody) VH: EVQLQESGPGLVKPSETLSLTCAVSGYSMTSDYWNWIRQPPGKKLEYIGYISYSGRTYYNPSLKSRVTISRDTSKNQFSLKLSSVTAADTAVYYCARGDYSNYGGAMYDWGQGTTVTVSS VL: DIVMTQTPLSLSVTPGQPASISCRASQGVSTTIAWYLQKPGQSPQLLIYSASYRYTGVPDRFSGSGSGTDFTLKISRVEAEDVGVYYCQQYYSSPFTFGGGTKVEIK	71.3	0.000163	2.29e+06	10.8	0.92	–	–	537	39.9	18.2	162
TIGIT-006-H3L2 (antibody, V domains shown, Humanized anti-TIGIT antibody) VH: EVQLQESGPGLVKPSETLSLTCAVSGYSMTSDYWNWIRQPPGKKLEWIGYISYSGRTYYNPSLKSRVTISRDTSKNQFSLKLSSVTAADTAVYYCARGDYSNYGGAMYDWGQGTTVTVSS VL: DIVMTQTPLSLSVTPGQPASISCRASQGVSTTIAWYQQKPGQSPKLLIYSASYRYTGVPDRFSGSGSGTDFTLKISRVEAEDVGVYYCQQYYSSPFTFGGGTKVEIK	748	0.000208	279000	9.9	9.66	–	–	709	49.4	7440	1380

Reference: patent US20240343803A1 (SHANDONG SIMCERE BIOPHARMACEUTICAL, published 2024)
